Source: patent US20200369765A1

Experiments:
Human Siglec-7 (human) = Human Siglec-7 (human) (UniProt Q9Y286); assay: flow cytometry on fresh purified human NK cells (CD3-/CD56+), isotype control staining
Human Siglec-9 (human) [1] = target: Human Siglec-9 (human) (UniProt Q9Y336); assay: flow cytometry titration on untreated monocyte-derived dendritic cells (moDCs), goat F(ab')2 anti-human IgG (Fc) PE; table under the left panel; the curve itself is flat
Human Siglec-9 (human) [2] = target: Human Siglec-9 (human) (UniProt Q9Y336); assay: flow cytometry titration on neuraminidase-treated moDCs, goat F(ab')2 anti-human IgG (Fc) PE; table under the right panel; the curve itself is flat
Human Siglec-9 (human) [3] = target: Human Siglec-9 (human) (UniProt Q9Y336); assay: flow cytometry on fresh purified human NK cells (CD3-/CD56+), isotype control staining

Sequence of Human Siglec-9 (human) (Q9Y336 18-463): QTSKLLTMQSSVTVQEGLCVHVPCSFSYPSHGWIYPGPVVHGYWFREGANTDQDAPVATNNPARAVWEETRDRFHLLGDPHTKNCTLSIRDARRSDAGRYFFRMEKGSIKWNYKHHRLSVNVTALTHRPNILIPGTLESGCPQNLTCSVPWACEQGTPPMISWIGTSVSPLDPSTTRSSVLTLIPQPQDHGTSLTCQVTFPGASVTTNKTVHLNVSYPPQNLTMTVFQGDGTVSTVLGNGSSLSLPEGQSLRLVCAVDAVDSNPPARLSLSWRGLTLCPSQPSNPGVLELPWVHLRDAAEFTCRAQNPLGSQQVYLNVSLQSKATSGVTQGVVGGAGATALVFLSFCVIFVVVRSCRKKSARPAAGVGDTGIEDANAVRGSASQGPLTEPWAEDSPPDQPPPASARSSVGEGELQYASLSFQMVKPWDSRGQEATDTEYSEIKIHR
Sequence of Human Siglec-7 (human) (Q9Y286 19-467): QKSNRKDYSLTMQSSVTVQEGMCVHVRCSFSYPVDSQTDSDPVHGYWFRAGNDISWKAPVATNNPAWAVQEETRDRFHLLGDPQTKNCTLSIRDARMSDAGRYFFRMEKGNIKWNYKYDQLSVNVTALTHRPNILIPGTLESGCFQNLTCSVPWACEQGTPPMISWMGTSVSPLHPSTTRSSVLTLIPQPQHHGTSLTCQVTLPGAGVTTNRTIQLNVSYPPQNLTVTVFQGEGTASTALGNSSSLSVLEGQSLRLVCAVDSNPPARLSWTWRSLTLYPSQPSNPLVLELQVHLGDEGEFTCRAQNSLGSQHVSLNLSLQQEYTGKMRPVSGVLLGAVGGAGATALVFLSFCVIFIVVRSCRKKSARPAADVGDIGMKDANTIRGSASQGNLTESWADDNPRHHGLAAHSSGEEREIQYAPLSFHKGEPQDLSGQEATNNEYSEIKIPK

Q: Which results are given for Isotype control - APC (antibody)?
A: percent of NK cells in quadrant Q1 (APC positive, PE negative) (Human Siglec-7 (human)): 0.975%; percent of NK cells in quadrant Q2 (APC positive, PE positive) (Human Siglec-7 (human)): 0.34%

Q: With Isotype control (antibody) as the substance, how does the EC50 (Human Siglec-9 (human) [1]) read?
A: The EC50 was 2.24 µg/mL.

Q: And the EC50 (Human Siglec-9 (human) [2])?
A: The EC50 was 1.22 µg/mL.

Q: For Isotype control - PE (antibody), which percent of NK cells in quadrant Q2 (APC positive, PE positive) (Human Siglec-9 (human) [3]) is on record?
A: Its percent of NK cells in quadrant Q2 (APC positive, PE positive) is 0.34%.

Q: And the percent of NK cells in quadrant Q3 (PE positive, APC negative) (Human Siglec-9 (human) [3])?
A: The percent of NK cells in quadrant Q3 (PE positive, APC negative) was 2.54%.
